Results taken from article PMC3701320, “Crystal Structures of Malonyl-Coenzyme A Decarboxylase Provide Insights into Its Catalytic Mechanism and Disease-Causing Mutations” (Structure(London, England:1993), 2013).

Experiments:
[1] = target: Rhodopseudomonas palustris malonyl-CoA decarboxylase (RpMCD), residues 8-451 (Rhodopseudomonas palustris); assay: multiangle static light scattering; oligomeric state in solution; data not shown
[2] = target: Cupriavidus metallidurans malonyl-CoA decarboxylase (CmMCD), residues 57-473 (Cupriavidus metallidurans); assay: not stated; oligomeric state of CmMCD in solution; method not given
[3] = target: the molecule itself; assay: SEC + AUC; analytical gel filtration on Superdex 200 in 10 mM HEPES pH 7.5, 150 mM NaCl; sedimentation velocity at 30,000 rpm, 4 °C, 50 μM HsMCD in the same buffer; oligomeric state in solution
[4] = target: the molecule itself; assay: multiangle static light scattering; oligomeric state in solution; data not shown

**Q.** How did the stoichiometry N [1] turn out when “Rhodopseudomonas palustris malonyl-CoA decarboxylase (RpMCD), residues 8-451 (enzyme)” was run?
**A.** Its stoichiometry N is 4.

**Q.** How did the stoichiometry N [2] turn out when “Cupriavidus metallidurans malonyl-CoA decarboxylase (CmMCD), residues 57-473 (enzyme)” was run?
**A.** The stoichiometry N was 2.

B1: Wild-type human malonyl-coenzyme A decarboxylase (HsMCD), residues 40-491 (enzyme, UniProt O95822 40-491, looked up)
chain: MDELLRRAVPPTPAYELREKTPAPAEGQCADFVSFYGGLAETAQRAELLGRLARGFGVDHGQVAEQSAGVLHLRQQQREAAVLLQAEDRLRYALVPRYRGLFHHISKLDGGVRFLVQLRADLLEAQALKLVEGPDVREMNGVLKGMLSEWFSSGFLNLERVTWHSPCEVLQKISEAEAVHPVKNWMDMKRRVGPYRRCYFFSHCSTPGEPLVVLHVALTGDISSNIQAIVKEHPPSETEEKNKITAAIFYSISLTQQGLQGVELGTFLIKRVVKELQREFPHLGVFSSLSPIPGFTKWLLGLLNSQTKEHGRNELFTDSECKEISEITGGPINETLKLLLSSSEWVQSEKLVRALQTPLMRLCAWYLYGEKHRGYALNPVANFHLQNGAVLWRINWMADVSLRGITGSCGLMANYRYFLEETGPNSTSYLGSKIIKASEQVLSLVAQFQKNS
notes: Malonyl-CoA decarboxylase (MCD, E.C. 4.1.1.9), human, residues 40-491, corresponding to the mature mitochondrial form; The His6-tag is TEV-cleavable (vector pNIC28-Bsa4, GenBank EF198106); also called human MCD; Wild-type HsMCD
**Q.** For B1, which “stoichiometry N” value [3] is on record?
**A.** Its value is 4.

B2: HsMCD E58A/K59A/E278A/E279A/K280A quintuple surface entropy reduction (SER) mutant, residues 40-491 (enzyme, human, UniProt O95822 40-491, looked up)
chain: MDELLRRAVPPTPAYELRAATPAPAEGQCADFVSFYGGLAETAQRAELLGRLARGFGVDHGQVAEQSAGVLHLRQQQREAAVLLQAEDRLRYALVPRYRGLFHHISKLDGGVRFLVQLRADLLEAQALKLVEGPDVREMNGVLKGMLSEWFSSGFLNLERVTWHSPCEVLQKISEAEAVHPVKNWMDMKRRVGPYRRCYFFSHCSTPGEPLVVLHVALTGDISSNIQAIVKEHPPSETAAANKITAAIFYSISLTQQGLQGVELGTFLIKRVVKELQREFPHLGVFSSLSPIPGFTKWLLGLLNSQTKEHGRNELFTDSECKEISEITGGPINETLKLLLSSSEWVQSEKLVRALQTPLMRLCAWYLYGEKHRGYALNPVANFHLQNGAVLWRINWMADVSLRGITGSCGLMANYRYFLEETGPNSTSYLGSKIIKASEQVLSLVAQFQKNS
notes: Malonyl-CoA decarboxylase (MCD), human, residues 40-491 (mature mitochondrial form) with five alanine substitutions for surface entropy reduction; The His6-tag is TEV-cleavable; Crystallised with a dimer in the asymmetric unit; the tetramer is generated through a crystallographic 2-fold axis; also called Quintuple SER mutant; SER quintuple mutant
**Q.** Does B2 bind [3]?
**A.** Result: binds

B3: Agrobacterium vitis malonyl-CoA decarboxylase (AvMCD), residues 1-448 (enzyme)
chain: MAGTSFLSDLLSGVTERGRALLFSGSKARDRVVDTDIETLCEMLLSSRGEASGMAIAAEILDRWSRFNAAEAVQFLHMLSDRFGAEAAALDKAIDAYRTDKSPMAVIALHNAAEPRRQELLRRLNLAPNGTQKLVRMRERLLETKEDRADLGAVDTDFAHLFSSWFNRGFLTLQPIDWTTPAHILEKIIKYEAVHEIAGWEELRRRLAPADRRCFAFFHPRLRDDPLVFVEVALTRSIPSAIADVLDESRDHIGADTATTAVFYSISNCQDGLRGISFGNFLIKQVVEDLRRDLPGLKEFVTLSPVPGFARWISKIRDPKSGFPLSPEDRNTLVLLDDPTWPEDKARADAVERILLPLAARYFITERTPDNRPVDPVARFHLGNGARLERLNFLGDRSVKAMRQAHGLMVNYLYKLEDIETNHEALAQRGEVAASPAVKALQGKIEPI
modifications: selenomethionyl (Se-Met labeled) protein
**Q.** Which “stoichiometry N” value [4] does the source give for B3 here?
**A.** Its value is 4.
